This is an account of results in article PMC6096475, “Structure of the GH9 glucosidase/glucosaminidase from Vibrio cholerae” (Acta Crystallographica. Section F, Structural Biology …, 2018).

For this data set, the system named is Cc1cc(=O)oc2cc(O[C@@H]3O[C@H](CO)[C@@H](O)[C@H](O)[C@H]3O)ccc12. In words: purified protein. The conditions noted are these: 20 mM sodium phosphate pH 6.5, 1 µM enzyme, temperature not stated.

As a reminder, the Km is the substrate concentration at which the rate is half of its maximum. For orientation: kcat means the maximal rate divided by the concentration of active sites. Regarding “VC0615 (Vibrio cholerae O1 biovar El Tor str. N16961)”, the Michaelis-Menten constant (Km) came to 768 µM and the turnover number (kcat) amounted to 1.3 min⁻¹.
